Laboratory results taken from the supplement of paper PMC9233669.
Variants at the floor of the assay were thinned out.

Columns and labels:
biotinyl-Val-oxazolone = assay: self-aminoacylation, catalytic enhancement (BVO) (fold over background); higher = more active; k-Seq, kA / k0A0; sequences stand for … in GGGAAUGGAUCCACAUCUACGAAUUC…UUCACUGCAGACUUGACGAAGCUG
How it was run: (§1)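 Mutagenized RNA pools (0.43 μM; 21-nt variable region) were treated with 2–1250 μM of each biotinyl-aminoacyl-oxazolone. Conditions were 50 μL HEPES/NaCl/KCl/MgCl2/CaCl2 buffer, 5% acetonitrile, pH 6.9–7.0, room temperature, 90 minutes. Catalytic enhancement, the median kA relative to the uncatalyzed rate, was derived from streptavidin capture, qPCR and Illumina sequencing.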

biotinyl-Ile-oxazolone = assay: self-aminoacylation, catalytic enhancement (BIO) (fold over background); higher = more active; k-Seq, kA / k0A0; sequences stand for … in GGGAAUGGAUCCACAUCUACGAAUUC…UUCACUGCAGACUUGACGAAGCUG
How it was run: as §1

biotinyl-Trp-oxazolone = assay: self-aminoacylation, catalytic enhancement (BWO) (fold over background); higher = more active; k-Seq, kA / k0A0; sequences stand for … in GGGAAUGGAUCCACAUCUACGAAUUC…UUCACUGCAGACUUGACGAAGCUG
How it was run: as §1

biotinyl-Leu-oxazolone = assay: self-aminoacylation, catalytic enhancement (BLO) (fold over background); higher = more active; k-Seq, kA / k0A0; sequences stand for … in GGGAAUGGAUCCACAUCUACGAAUUC…UUCACUGCAGACUUGACGAAGCUG
How it was run: as §1

biotinyl-Met-oxazolone = assay: self-aminoacylation, catalytic enhancement (BMO) (fold over background); higher = more active; k-Seq, kA / k0A0; sequences stand for … in GGGAAUGGAUCCACAUCUACGAAUUC…UUCACUGCAGACUUGACGAAGCUG
How it was run: as §1

biotinyl-Phe-oxazolone = assay: self-aminoacylation, catalytic enhancement (BFO) (fold over background); higher = more active; k-Seq, kA / k0A0; sequences stand for … in GGGAAUGGAUCCACAUCUACGAAUUC…UUCACUGCAGACUUGACGAAGCUG
How it was run: as §1

Row | Sequence | self-aminoacylation (biotinyl-Val-oxazolone) | self-aminoacylation (biotinyl-Ile-oxazolone) | self-aminoacylation (biotinyl-Trp-oxazolone) | self-aminoacylation (biotinyl-Leu-oxazolone) | self-aminoacylation (biotinyl-Met-oxazolone) | self-aminoacylation (biotinyl-Phe-oxazolone)
1 | CAACACUUCAAUCAAUCGGUC [Fam1B.1 aminoacylation ribozyme variant] | 1.05 | 1.06 | 19.1 | 1.66 | 1.19 | 34.9
2 | CCACUCUUCAAGCAAUCGUUC [Fam1B.1 aminoacylation ribozyme variant] | 0.857 | 0.87 | 0.68 | 0.724 | 0.915 | 1.06
3 | CCACACGUCAAGCAAGCGGUC [Fam1B.1 aminoacylation ribozyme variant] | 1.57 | 0.826 | 0.697 | 1.19 | 1.24 | 0.494
4 | AUUACCCUUGUCAUGGAGUGA [Fam2.1 aminoacylation ribozyme variant] | 2.76 | 2.87 | 5.67 | 5.03 | 4.62 | 22.1
5 | ACUAUCCUGGUCAUCGAGUGA [Fam2.1 aminoacylation ribozyme variant] | 3.62 | 3.7 | 8.06 | 6.46 | 6.19 | 18.4
6 | AUUAACCUGGUCAUCGACUGA [Fam2.1 aminoacylation ribozyme variant] | 0.746 | 0.842 | 0.612 | 0.938 | 0.801 | 0.674
7 | ACACACUUCAAGCUAUCGGUC [Fam1B.1 aminoacylation ribozyme variant] | 1.2 | 1.33 | 0.982 | 1.1 | 1.03 | 1.15
8 | CAACUUCAAACAAUCGGUGUG [Fam1A.1 aminoacylation ribozyme variant] | 1.7 | 1.92 | 16.5 | 2.53 | 2.15 | 27.3
9 | CCACACUUCAGGCAAUUGGUC [Fam1B.1 aminoacylation ribozyme variant] | 0.83 | 0.887 | 0.556 | 0.823 | 0.647 | 0.558
10 | AUUACCCAGGUCAUAGAGUGA [Fam2.1 aminoacylation ribozyme variant] | 5.27 | 4.85 | 11.3 | 9.64 | 10.7 | 37.5
11 | AUUCACCUAGGUCAUCGAGUA [Fam2.2 aminoacylation ribozyme variant] | 5.92 | 7.22 | 3.9 | 13.1 | 9.81 | 31.7
12 | AUUACCCUGGUCAGCUAGUGA [Fam2.1 aminoacylation ribozyme variant] | 2.34 | 2.53 | 3.12 | 3.32 | 3.32 | 6.76
13 | CCGCACUUCAAGCAAACGGUC [Fam1B.1 aminoacylation ribozyme variant] | 1.3 | 0.937 | 1.04 | 0.684 | 0.724 | 0.946
14 | AAGUUUGCUAAGAGGCGCAAG [Fam3.1 aminoacylation ribozyme variant] | 0.656 | 0.727 | 0.895 | 0.547 | 0.759 | 1.21
15 | CCCCACUUCAAGCAAUCGCUC [Fam1B.1 aminoacylation ribozyme variant] | 2.55 | 2.08 | 4.28 | 2.99 | 2.93 | 8.76
16 | CUACUUCGAACAAUCGGUCUC [Fam1A.1 aminoacylation ribozyme variant] | 0.683 | 0.781 | 0.507 | 0.648 | 0.66 | 0.828
17 | AUUCACCUAGGUAAUCGUGUG [Fam2.2 aminoacylation ribozyme variant] | 0.838 | 0.879 | 0.758 | 1.14 | 0.915 | 3.38
18 | CCACACUUUAAGCAGUCGGUC [Fam1B.1 aminoacylation ribozyme variant] | 0.946 | 0.858 | 0.623 | 0.926 | 0.755 | 1.16
19 | AUUCACCUAAGUAAUCGGGUG [Fam2.2 aminoacylation ribozyme variant] | 2.15 | 2.81 | 4.33 | 5.7 | 4.37 | 24.9
20 | AAUACCCAGGUCAUCGAGUGA [Fam2.1 aminoacylation ribozyme variant] | 2.56 | 2.87 | 5.81 | 4.58 | 4.41 | 17.6
21 | ACGUAUGCUAAUAGUCGCAAG [Fam3.1 aminoacylation ribozyme variant] | 1.43 | 1.61 | 1.29 | 1.72 | 1.35 | 1.96
22 | CUACUUCAACCAAUCGGUCUG [Fam1A.1 aminoacylation ribozyme variant] | 1.04 | 0.988 | 18.7 | 1.48 | 1.07 | 33.1
23 | ACGUUUUCUAAUAGUCGCAAG [Fam3.1 aminoacylation ribozyme variant] | 1.53 | 1.75 | 1.55 | 1.67 | 1.59 | 2.79
24 | AUUACACUGCUCAUCGAGUGA [Fam2.1 aminoacylation ribozyme variant] | 1.61 | 1.55 | 2.31 | 1.72 | 1.8 | 1.51
25 | CCAGACUUCACGCAAUCGGUC [Fam1B.1 aminoacylation ribozyme variant] | 1.76 | 1.64 | 1.65 | 1.6 | 1.79 | 4.39
26 | CCACAAUUCAAGCAAUCGGUG [Fam1B.1 aminoacylation ribozyme variant] | 5.99 | 6.36 | 8.78 | 12.3 | 8.06 | 60.3

Row | Sequence | self-aminoacylation (biotinyl-Val-oxazolone) | self-aminoacylation (biotinyl-Ile-oxazolone) | self-aminoacylation (biotinyl-Trp-oxazolone) | self-aminoacylation (biotinyl-Leu-oxazolone) | self-aminoacylation (biotinyl-Met-oxazolone) | self-aminoacylation (biotinyl-Phe-oxazolone)
27 | AAUUUUGCUCAUAGUCGCAAG [Fam3.1 aminoacylation ribozyme variant] | 1.57 | 1.85 | 1.69 | 1.98 | 1.82 | 3.17
28 | AUUACCCUGGUCUUCGAGGGA [Fam2.1 aminoacylation ribozyme variant] | 1.35 | 1.5 | 1.31 | 1.54 | 1.15 | 0.74
29 | ACGUUCGCUAAUAGUCGCAAG [Fam3.1 aminoacylation ribozyme variant] | 1.91 | 1.84 | 2.21 | 1.96 | 1.24 | 1.62
30 | CCACACUUCAAGAACUCGGUC [Fam1B.1 aminoacylation ribozyme variant] | 1.01 | 0.836 | 0.586 | 1.01 | 0.696 | 0.548
31 | CCACGCUUCAAGCAAUCGGGC [Fam1B.1 aminoacylation ribozyme variant] | 2.04 | 1.08 | 1.41 | 0.924 | 1.25 | 1.35
32 | AAUACCCUGGUCAUCGAGUGU [Fam2.1 aminoacylation ribozyme variant] | 4.56 | 3.84 | 8.44 | 7.95 | 8.79 | 20.5
33 | CCACGCUUCACGCAAUCGGUC [Fam1B.1 aminoacylation ribozyme variant] | 1.82 | 1.15 | 1.95 | 1.09 | 1.4 | 0.964
34 | AUUACCCUGGCCAUUGAGUGA [Fam2.1 aminoacylation ribozyme variant] | 2.41 | 2.13 | 4.73 | 4.53 | 3.72 | 4.63
35 | AAUACCCUGGUCAGCGAGUGA [Fam2.1 aminoacylation ribozyme variant] | 2.61 | 2.36 | 5.5 | 4.46 | 4.02 | 3.78
36 | CCUCACUUCAACCAAUCGGUC [Fam1B.1 aminoacylation ribozyme variant] | 1.27 | 1.28 | 27.6 | 1.84 | 1.35 | 57.5
37 | CUACUUCGAUCAAUCGGUCUG [Fam1A.1 aminoacylation ribozyme variant] | 0.584 | 0.591 | 0.434 | 0.585 | 0.528 | 0.778
38 | CUACUUCUAACUAUCGGUCUG [Fam1A.1 aminoacylation ribozyme variant] | 0.841 | 0.734 | 0.65 | 0.628 | 0.766 | 0.796
39 | AUUACCCUGGUCAUCGAUUGG [Fam2.1 aminoacylation ribozyme variant] | 0.856 | 0.665 | 1.3 | 0.713 | 0.715 | 0.798
40 | AUUACCUUGGUCAUCUAGUGA [Fam2.1 aminoacylation ribozyme variant] | 4.72 | 4.49 | 11.2 | 8.77 | 9.34 | 47.8
41 | CUACUCCUAACAAUCGGUCUG [Fam1A.1 aminoacylation ribozyme variant] | 0.774 | 0.748 | 0.441 | 0.667 | 0.504 | 0.659
42 | AUUCCCCUAGCUCAUCGGGUG [Fam2.2 aminoacylation ribozyme variant] | 6.05 | 6.15 | 5.96 | 6.66 | 5.75 | 35.1
43 | CUACUUCAAAAAAUCGCUCUG [Fam1A.1 aminoacylation ribozyme variant] | 0.484 | 0.539 | 0.727 | 0.486 | 0.492 | 0.901
44 | AUUACCCUGUUCAUCGAGCGA [Fam2.1 aminoacylation ribozyme variant] | 1.33 | 1.2 | 1.08 | 1.36 | 1.35 | 1.13
45 | CUUAUCCUGGUCAUCGAGUGA [Fam2.1 aminoacylation ribozyme variant] | 3.42 | 3.22 | 6.96 | 6.22 | 6.26 | 7.87
46 | CUACUUCCAAGAAUCGGUCUG [Fam1A.1 aminoacylation ribozyme variant] | 0.776 | 0.838 | 1.04 | 0.762 | 0.934 | 0.97
47 | AUUCUCCUAGGUCAUUGGGUG [Fam2.2 aminoacylation ribozyme variant] | 3.87 | 3.96 | 6.02 | 7.5 | 5.76 | 44
48 | AUCACCCUGGUCAUUGAGUGA [Fam2.1 aminoacylation ribozyme variant] | 5.8 | 5.63 | 12.9 | 13 | 11.3 | 75.1
49 | AUUCACCUAGGUCGUCGGGAG [Fam2.2 aminoacylation ribozyme variant] | 1.36 | 0.982 | 0.943 | 1.27 | 0.924 | 0.385
50 | CCACACUUGAAGCAAUCGGUG [Fam1B.1 aminoacylation ribozyme variant] | 2.39 | 2.21 | 3.48 | 4.29 | 3.04 | 19.1
51 | GAGUUUGCUAAUAGUCGCAUG [Fam3.1 aminoacylation ribozyme variant] | 1.44 | 1.59 | 1.17 | 1.25 | 1.59 | 2.24
